# According to IntAct's records for PubMed 22345554:
# B1: Bile acid receptor (Homo sapiens), Q96RI1 (parent)
# chain: MVMQFQGLENPIQISPHCSCTPSGFFMEMMSMKPAKGVLTEQVAGPLGQNLEVEPYSQYSNVQFPQVQPQISSSSYYSNLGFYPQQPEEWYSPGIYELRRMPAETLYQGETEVAEMPVTKKPRMGASAGRIKGDELCVVCGDRASGYHYNALTCEGCKGFFRRSITKNAVYKCKNGGNCVMDMYMRRKCQECRLRKCKEMGMLAECMYTGLLTEIQCKSKRLRKNVKQHADQTVNEDSEGRDLRQVTSTTKSCREKTELTPDQQTLLHFIMDSYNKQRMPQEITNKILKEEFSAEENFLILTEMATNHVQVLVEFTKKLPGFQTLDHEDQIALLKGSAVEAMFLRSAEIFNKKLPSGHSDLLEERIRNSGISDEYITPMFSFYKSIGELKMTQEEYALLTAIVILSPDRQYIKDREAVEKLQEPLLDVLQKLCKIHQPENPQHFACLLGRLTELRTFNHHHAEMLMSWRVNDHKFTPLLCEIWDVQ
# partner: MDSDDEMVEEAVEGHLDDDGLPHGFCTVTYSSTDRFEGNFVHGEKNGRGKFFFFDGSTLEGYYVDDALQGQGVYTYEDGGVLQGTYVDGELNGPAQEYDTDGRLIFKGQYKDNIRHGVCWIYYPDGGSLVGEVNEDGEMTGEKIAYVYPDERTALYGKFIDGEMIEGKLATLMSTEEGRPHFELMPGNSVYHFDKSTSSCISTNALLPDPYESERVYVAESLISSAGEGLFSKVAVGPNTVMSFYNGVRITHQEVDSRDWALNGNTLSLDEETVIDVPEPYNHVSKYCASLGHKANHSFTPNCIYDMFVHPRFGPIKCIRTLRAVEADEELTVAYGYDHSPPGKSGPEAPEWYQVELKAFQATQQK
# Variants of: B1
# Conditions: with setd7_human SETD7, Q8WTS6
row,Variant,effect of a mutation on the interaction
1,K220R,decreasing interaction
